This note sets out measurements from publication PMC8544716.

Details in all cases: EMSA: 0.2 uM 5'-labelled RNA (90 C 2 min, slow cool to 37 C), yeast tRNA 0.1 ug/reaction, Hfq hexamer 0-500 nM, structure buffer (Ambion), 10 min at 37 C, then …
A general note: A gel shift assay detects complexes by their altered migration in electrophoresis.

Data set [1] has as its target Hfq (Escherichia coli) (UniProt P0A6X3). The data set is described as follows: EMSA.
For data set [2] the target is unchanged. The data set is described as follows: footprinting (lead acetate).
Data set [3] relates to Hfq (Escherichia coli). The data set is described as follows: EMSA.

Chain of Hfq (Escherichia coli) (UniProt P0A6X3) (P0A6X3 whole entry): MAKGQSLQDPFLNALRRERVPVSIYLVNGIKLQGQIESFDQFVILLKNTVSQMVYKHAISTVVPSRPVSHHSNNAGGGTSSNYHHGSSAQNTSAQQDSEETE

With “GGAUACGCACAAUAAGGCUAUUGUACGUAUGCAAAUUAAUAAUAAAGGAGAGUAGCAAUGUCAUUCGAAUUACCUGCACUACCAUAUGCUAAAGAUGCUCUGGCACCGCACAUUUCUGCGGAAACCAUCGAGGAUCCCUAGC [sodB130]”, the Kd with Hfq (Escherichia coli) [1] was determined as 156 nM. In addition, in the data set with Hfq (Escherichia coli) [2], the binding result is reported as “binds”.

In the case of “GGAUACGCACAAUAAGGCUAUUGUACGUAUGCAGGCCGGCAAUAAAGGAGAGUAGCAAUGUCAUUCGAAUUACCUGCACUACCAUAUGCUAAAGAUGCUCUGGCACCGCACAUUUCUGCGGAAACCAUCGAGGAUCCCUAGC [sodB130MH]”, the Kd with Hfq (Escherichia coli) [1] is 314 nM.

In the case of sodB130, in the data set on Hfq (Escherichia coli) [3], the Kd is 156 nM.

The term Kd denotes a measure of binding affinity in units of concentration. A lower Kd goes with tighter binding.
